Assay results reported in patent publication US20210380697A1 (HUMMINGBIRD BIOSCIENCE PTE, published 2021).

B1: IGN175A IgG1 (antibody, V domains shown)
VH: QVQLQQSGAELMKPGASVKISCKATGYTFSTHWIEWVKQRPGHGLEWIGEILPGSGSTSYNEKFKGKATFTADTSSNTAYMQLSSLTSEDSAVYYCARWLLYYYAMDYWGQGTSVTVSS
VL: DVLMTQTPLSLPVSLGDQASISCRSSQSIVHSNGNTYLEWYLQKPGQSPKLLIYKLSNRFSGVPDRFSGSGSGTDFTLKISRVEAEDLGVYYCFQGSHFPYTFGGGTKLEIKR
notes: Prior-art comparator (WO 2014/197849)
B2: anti-VISTA clone V4-C1 IgG1 (antibody, V domains shown)
VH: QVQLQESGPGLVKPSDTLSLTCTVSGYSITSDYAWNWIRQTPGKGLEWIGYITYSGYISYNPSLRSRVTISRDTSKNQFSLKLSSVTAADTAVYSCARALYYPWYFDVWGTGTTVTVSS
VL: EIVITQSPATLSLSPGERATLSCRASSSVGYIHWYQQKPGQAPRPLIYATSNRATGIPARFSGSGSGTDNTLTISSLEPEDSAVYYCQQWSSYPPITFGGGTKLEVKR

Key:
His-tagged human VISTA [1] = biological target: T1, His-tagged human VISTA (human, UniProt Q9H7M9 33-194); assay: BLI epitope binning, human VISTA-His on anti-Penta-His sensor; row = saturating antibody 400 nM; competitor added after it: V4-C1 IgG1 300 nM
T1 construct: Bought recombinant protein with a His tag; also called human VISTA-His recombinant protein; hVISTA
Protocol: (§1) Epitope binning experiments were performed by BLI using the Octet QK384 system (ForteBio). […] Biosensors were subsequently treated with 300 nM competing antibody in
(§2) The following antigen-binding molecules were analysed in the experiment: [1639]

His-tagged human VISTA [2] = biological target: T1, His-tagged human VISTA; assay: BLI epitope binning, human VISTA-His on anti-Penta-His sensor; row = saturating antibody 400 nM; competitor added after it: IGN175A IgG1 300 nM
Protocol: as §1, §2

Row | Binder | change in response upon addition of the competing antibody (His-tagged human VISTA [1]) [nm] | change in response upon addition of the competing antibody (His-tagged human VISTA [2]) [nm]
1 | B1 | 1.44 | 0.0454
2 | B2 | -0.0158 | 1.07
